Data published in US20250188131A1 (ICOSAVAX, published 2025).

Molecular target: T1, I53-50B.4PosT1
T1 construct: also called second component; CompB
Experiment: in vitro assembly with I53-50B, DLS
Protocol: Selected constructs were incubated with a second component, I53-50B, to form nanostructures. Dynamic Light Scattering (DLS) and negative-stain electron microscopy (nsEM) confirm assembly as nanostructure. A representative electron micrograph is shown in FIG. 5 (RSV/B.195, having the DS-Cav).
Assembly: Molar concentrations for RSV/B or RSV/A trimers fused to I53-50AΔcys and I53-50B (second component, using the sequence of I53-50B.4PosT1, SEQ ID NO:46) were determined using UV-Vis spectroscopy. Absorbance values at 280 nm were collected and divided by calculated molar extinction coefficients (ExPASy). The assembly reaction to produce RSVB antigen-bearing nanostructures was performed in vitro with the addition of components as follows: RSV F trimers fused to I53-50AΔcys were added to PCR tubes in 1.5× molar excess of I53-50B, then assembly buffer (20 mM Tris pH 7.4, 250 mM NaCl, 4% sucrose) was added to the sample in PCR tubes, and finally I53-50B was added to the reaction to bring the assemblies to a final concentration of 7.5 μM and a final volume of 47.5 μL. The reaction was incubated at ambient temperature for ˜30 minutes with gentle rocking prior to subsequent measurement by dynamic light scattering (DLS). All constructs were assembly competent under the conditions tested. Prior to nsEM analysis or immunogenicity studies, assembled nanostructures were further purified by size exclusion chromatography over a Superose 6 Increase 10/300 GL column into 20 mM Tris pH 7.4, 250 mM NaCl, 4% sucrose.

B1: RSV/B.148 (other)
chain: QNITEEFYQSTCSAVSRGYLSALRTGWYTSVITIELSNIKETKCNGTDTKVKLIKQELDKYKNAVTELQLLMQNTPAVNNRARREAPQYMNYTINTTKNLNVSISKKRKRRFLGFLLGVGSAIASGIAVCKVLHLEGEVNKIKNALQLTNKAVVSLSNGVSVLTFRVLDLKNYINNQLLPMLNRQSCRISNIETVIEFQQKNSRLLEITREFSVNAGVTTPLSPYMLTNSELLSLINDMPITNDQKKLMSSNVQIVRQQSYSIMCIIKEEVLAYVVQLPIYGVIDTPCWKLHTSPLCTTNIKEGSNICLTRTDRGWYCDNAGSVSFFPQADTCKVQSNRVFCDTMNSLTLPSEVSLCNTDIFNSKYDCKIMTSKTDISSSVITSLGAIVSCYGKTKCTASNKNRGIIKTFSNGCDYVSNKGVDTVSVGNTLYYVNKLEGKNLYVKGEPIINYYDPLVFPSDRFDASISQVNEAINQSREIIRAINIVRKIASEKGSGGSGSGSGGSEKAAKAEEAARKMEELFKKHKIVAVLRANSVEEAIEKAVAVFAGGVHLIEITFTVPDADTVIKALSVLKEKGAIIGAGTVTSVEQARKAVESGAEFIVSPHLDEEISQFAKEKGVFYMPGVMTPTELVKAMKLGHTILKLFPGEVVGPQFVKAMKGPFPNVKFVPTGGVNLDNVAEWFKAGVLAVGVGSALVKGTPDEVREKAKAFVEKIRGATELLEHHHHHH
**Q.** Does B1 bind?
**A.** Result: binds
